Laboratory results as given in patent publication US20160039904A1, “STABILIZED SINGLE HUMAN CD4 DOMAINS AND FUSION PROTEINS” (priority 2013, published 2016).
Read-outs that look alike come from different tables or passages of the source.

Legend:
[1] = target: gp140Con-s (HIV-1)
[2] = target: HIV-1 Env of isolate KNH1088.EC5 (HIV-1); assay: cell-based or functional assay
[3] = target: HIV-1 Env of isolate BZ167.ec9 (HIV-1); assay: cell-based or functional assay
[4] = target: HIV-1 Env of isolate 55815.EC3 (HIV-1); assay: cell-based or functional assay
[5] = target: HIV-1 Env of isolate KNH1144.EC1 (HIV-1); assay: cell-based or functional assay
[6] = target: HIV-1 Env of isolate A07412VRC12A (HIV-1); assay: cell-based or functional assay
[7] = target: HIV-1 Env of isolate 57128.VRC18 (HIV-1); assay: cell-based or functional assay
[8] = target: HIV-1 Env of isolate Bal.EC1 TC (HIV-1); assay: cell-based or functional assay
[9] = target: HIV-1 Env of isolate CM240.EC1 (HIV-1); assay: cell-based or functional assay
[10] = target: HIV-1 Env of isolate N1 1046.e3 PV (HIV-1); assay: cell-based or functional assay
[11] = target: HIV-1 Env of isolate GS-015.EC12 (HIV-1); assay: cell-based or functional assay
[12] = target: HIV-1 Env of isolate PBL286.VRC36aPV (HIV-1); assay: cell-based or functional assay
[13] = target: HIV-1 Env of isolate CAM0015BBY.EC3 (HIV-1); assay: cell-based or functional assay
[14] = target: HIV-1 Env of isolate JRFL (HIV-1); assay: cell-based or functional assay
[15] = target: HIV-1 Env of isolate Bal (HIV-1); assay: cell-based or functional assay
[16] = target: HIV-1 Env of isolate GXE (HIV-1); assay: cell-based or functional assay
[17] = target: HIV-1 Env of isolate Z2Z6 (HIV-1); assay: cell-based or functional assay
[18] = target: HIV-1 Env of isolate 89.6 (HIV-1); assay: cell-based or functional assay
[19] = target: HIV-1 Env of isolate CM243 (HIV-1); assay: cell-based or functional assay
[20] = target: HIV-1 Env of isolate JRFL (HIV-1); assay: cell-based or functional assay; remark: listed apart in the source
[21] = target: HIV-1 Env of isolate GXC (HIV-1); assay: cell-based or functional assay
[22] = target: HIV-1 Env of isolate JRCSF (HIV-1) (UniProt P20871); assay: cell-based or functional assay
[23] = target: HIV-1 Env of isolate Bal (HIV-1); assay: cell-based or functional assay; remark: listed apart in the source
[24] = target: HIV-1 Env of isolate AD8 (HIV-1); assay: cell-based or functional assay
[25] = target: HIV-1 Env of isolate 92UG037.8 (HIV-1); assay: cell-based or functional assay
[26] = target: HIV-1 Env of isolate NL4-3 (HIV-1); assay: cell-based or functional assay
[27] = target: HIV-1 Env of isolate IIIB (HIV-1); assay: cell-based or functional assay
[28] = target: HIV-1 Env of isolate R2 (HIV-1); assay: cell-based or functional assay

Chain of HIV-1 Env of isolate JRCSF (HIV-1) (P20871 32-848 limits assumed): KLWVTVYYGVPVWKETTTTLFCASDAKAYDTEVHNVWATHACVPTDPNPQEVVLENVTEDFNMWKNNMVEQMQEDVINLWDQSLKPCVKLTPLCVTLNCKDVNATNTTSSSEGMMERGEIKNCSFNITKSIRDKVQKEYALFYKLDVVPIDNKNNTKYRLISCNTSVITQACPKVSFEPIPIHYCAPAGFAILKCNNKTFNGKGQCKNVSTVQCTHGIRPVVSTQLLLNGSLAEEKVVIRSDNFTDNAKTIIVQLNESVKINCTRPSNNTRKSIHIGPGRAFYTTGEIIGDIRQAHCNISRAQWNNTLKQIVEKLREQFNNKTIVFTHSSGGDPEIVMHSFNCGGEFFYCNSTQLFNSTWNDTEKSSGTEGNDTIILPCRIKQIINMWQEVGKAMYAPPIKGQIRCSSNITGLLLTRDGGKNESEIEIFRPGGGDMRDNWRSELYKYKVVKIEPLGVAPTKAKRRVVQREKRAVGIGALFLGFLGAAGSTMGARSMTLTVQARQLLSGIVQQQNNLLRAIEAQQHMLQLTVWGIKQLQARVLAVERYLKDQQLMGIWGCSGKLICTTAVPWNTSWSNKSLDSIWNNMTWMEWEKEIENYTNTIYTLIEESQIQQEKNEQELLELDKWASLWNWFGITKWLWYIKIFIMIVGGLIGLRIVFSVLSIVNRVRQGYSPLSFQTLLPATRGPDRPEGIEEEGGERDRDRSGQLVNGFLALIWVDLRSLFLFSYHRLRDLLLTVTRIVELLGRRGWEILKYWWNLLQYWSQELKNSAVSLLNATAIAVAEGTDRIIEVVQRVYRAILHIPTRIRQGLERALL

D1D2 (receptor)
EC50 (read off the curve) of the enhancement of m36h1Fc binding [1]: 10 to 100 nM

b12 (antibody)
IC50, neutralization in TZM-bl cell-based assay [2]: 117 nM | IC90, neutralization in TZM-bl cell-based assay [2]: > 167 nM | IC90, neutralization in TZM-bl cell-based assay [3]: > 167 nM | IC50, neutralization in TZM-bl cell-based assay [4]: > 167 nM | IC90, neutralization in TZM-bl cell-based assay [4]: > 167 nM | IC50, neutralization in TZM-bl cell-based assay [5]: > 167 nM | IC90, neutralization in TZM-bl cell-based assay [5]: > 167 nM | IC50, neutralization in TZM-bl cell-based assay [6]: 12 nM | IC90, neutralization in TZM-bl cell-based assay [6]: > 167 nM | IC90, neutralization in TZM-bl cell-based assay [7]: 30 nM | IC90, neutralization in TZM-bl cell-based assay [8]: 3.6 nM | IC50, neutralization in TZM-bl cell-based assay [9]: 82 nM | IC90, neutralization in TZM-bl cell-based assay [9]: > 167 nM | IC50, neutralization in TZM-bl cell-based assay [10]: 138 nM | IC90, neutralization in TZM-bl cell-based assay [10]: > 167 nM | IC50, neutralization in TZM-bl cell-based assay [11]: 0.085 nM | IC90, neutralization in TZM-bl cell-based assay [11]: 1.6 nM | IC50, neutralization in TZM-bl cell-based assay [12]: 4 nM | IC90, neutralization in TZM-bl cell-based assay [12]: 19 nM | IC50, neutralization in TZM-bl cell-based assay [13]: 81 nM | IC90, neutralization in TZM-bl cell-based assay [13]: > 167 nM

4Dm2m (bispecific antibody)
IC50, neutralization of pseudotyped HIV-1 [14]: 0.06 nM | IC90, neutralization of pseudotyped HIV-1 [14]: 0.29 nM | IC50, neutralization of pseudotyped HIV-1 [15]: 0.12 nM | IC90, neutralization of pseudotyped HIV-1 [15]: 0.36 nM | IC50, neutralization of pseudotyped HIV-1 [16]: 0.83 nM | IC90, neutralization of pseudotyped HIV-1 [16]: 8.2 nM | IC50, neutralization of pseudotyped HIV-1 [17]: 0.14 nM | IC90, neutralization of pseudotyped HIV-1 [17]: 1.1 nM | IC50, neutralization of pseudotyped HIV-1 [18]: < 0.021 nM | IC90, neutralization of pseudotyped HIV-1 [18]: < 0.021 nM | IC50, neutralization in TZM-bl cell-based assay [2]: 0.48 nM | IC50, neutralization of pseudotyped HIV-1 [19]: 0.29 nM | IC90, neutralization of pseudotyped HIV-1 [19]: 1.2 nM | IC50, neutralization in TZM-bl cell-based assay [3]: 0.077 nM | IC90, neutralization in TZM-bl cell-based assay [3]: 0.5 nM | IC50, neutralization in TZM-bl cell-based assay [4]: 0.084 nM | IC90, neutralization in TZM-bl cell-based assay [4]: 0.61 nM | IC50, neutralization in TZM-bl cell-based assay [5]: 0.081 nM | IC90, neutralization in TZM-bl cell-based assay [5]: 1 nM | IC50, inhibition of Env-mediated cell-cell fusion [20]: 3.6 nM | IC50, neutralization of pseudotyped HIV-1 [20]: 0.14 nM | IC90, inhibition of Env-mediated cell-cell fusion [20]: 8.8 nM | IC90, neutralization of pseudotyped HIV-1 [20]: 0.39 nM | IC50, neutralization of pseudotyped HIV-1 [21]: 0.61 nM | IC90, neutralization of pseudotyped HIV-1 [21]: 4 nM | IC50, neutralization in TZM-bl cell-based assay [6]: 0.75 nM | IC90, neutralization in TZM-bl cell-based assay [6]: 5.7 nM | IC50, neutralization in TZM-bl cell-based assay [7]: 0.4 nM | IC90, neutralization in TZM-bl cell-based assay [7]: 2.8 nM | IC50, neutralization in TZM-bl cell-based assay [8]: 0.057 nM | IC90, neutralization in TZM-bl cell-based assay [8]: 0.22 nM | IC50, neutralization in TZM-bl cell-based assay [9]: 0.45 nM | IC90, neutralization in TZM-bl cell-based assay [9]: 3.7 nM | IC50, neutralization of pseudotyped HIV-1 [22]: 0.29 nM | IC90, neutralization of pseudotyped HIV-1 [22]: 3 nM | IC90, neutralization in TZM-bl cell-based assay [10]: 27 nM | IC50, neutralization in TZM-bl cell-based assay [11]: 0.022 nM | IC90, neutralization in TZM-bl cell-based assay [11]: 0.17 nM | IC50, inhibition of Env-mediated cell-cell fusion [23]: 4.1 nM | IC50, neutralization of pseudotyped HIV-1 [23]: 0.15 nM | IC90, neutralization of pseudotyped HIV-1 [23]: 0.5 nM | IC50, neutralization in TZM-bl cell-based assay [12]: 2 nM | IC50, neutralization of pseudotyped HIV-1 [24]: 0.13 nM | IC90, neutralization of pseudotyped HIV-1 [24]: 0.74 nM | IC50, neutralization of pseudotyped HIV-1 [25]: 0.051 nM | IC90, neutralization of pseudotyped HIV-1 [25]: 0.45 nM | IC50, neutralization of pseudotyped HIV-1 [26]: 0.094 nM | IC90, neutralization of pseudotyped HIV-1 [26]: 0.15 nM | IC50, neutralization of pseudotyped HIV-1 [27]: 0.037 nM | IC90, neutralization of pseudotyped HIV-1 [27]: 0.1 nM | IC50, neutralization of pseudotyped HIV-1 [28]: 0.028 nM | IC90, neutralization of pseudotyped HIV-1 [28]: 0.43 nM | IC50, neutralization in TZM-bl cell-based assay [13]: 0.72 nM | IC90, neutralization in TZM-bl cell-based assay [13]: 7.4 nM
